We go through one sequence from patent US20170100354A1.

For this test, the target named is H4 tail (residues 1-30) of the acetyl reporter protein (H4ac indicator). As to the kind of experiment: cell-based or functional assay.

For the sequence “TATA binding protein (TBP)-associated factor II (TAFII) bromodomain of the H4ac indicator”, the % of cells discriminated from auto fluorescence (FACS), H4ac indicator, 1 µM SAHA worked out at 5%; the % of cells discriminated from auto fluorescence (FACS), H4ac indicator, 2.5 µM SAHA amounted to 20%; the % of cells discriminated from auto fluorescence (FACS), H4ac indicator, 7.5 µM SAHA worked out at 40%; the % of cells discriminated from auto fluorescence (FACS), H4ac indicator, 10 µM SAHA was 45%.
